Data: PMC9352680, “A comprehensive thermodynamic model for RNA binding by the Saccharomyces cerevisiae Pumilio protein PUF4”

T1: PUF4 RNA-binding domain (Saccharomyces cerevisiae, UniProt P25339 537-888)
T1 sequence: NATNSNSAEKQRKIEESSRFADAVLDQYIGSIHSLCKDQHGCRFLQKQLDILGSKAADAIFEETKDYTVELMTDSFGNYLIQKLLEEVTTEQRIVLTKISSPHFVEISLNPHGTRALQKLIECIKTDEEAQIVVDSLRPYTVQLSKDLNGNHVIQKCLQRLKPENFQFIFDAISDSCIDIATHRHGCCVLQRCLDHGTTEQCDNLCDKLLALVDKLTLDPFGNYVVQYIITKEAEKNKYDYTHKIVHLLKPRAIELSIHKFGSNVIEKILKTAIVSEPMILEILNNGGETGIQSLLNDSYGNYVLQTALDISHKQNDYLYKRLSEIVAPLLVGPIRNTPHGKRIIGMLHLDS


Biological target: T1, PUF4 RNA-binding domain
Assay: Mg; RNA-MaP; 20 mM Na-HEPES pH 7.4, 30 mM KOAc, 0.75 mM MgCl2, 0.1% Tween-20, 5% glycerol, 0.1 mg/mL BSA, 2 mM DTT; 25 C; 0.0125-409.6 nM protein
Conditions: tags: N-His6-TEV cleaved; C-SNAP kept, Cy3B-labelled; label: tethered on chip by stalled RNA polymerase

Binder	Kd [nM]
UCUCUUUGUAUUAGUUCUCUU (ssRNA) [Ic_S1_P4E.1_K4.1_C4.1_H4.1_A4.1_[A6T]_[T7A]_F4.1_[T8G]_[A9T]_T4.1]	431
UCUCUUUGUAUCGCUUCUCUU (ssRNA) [Ic_S1_P4E.1_K4.1_C4.1_H4.1_A4.1_[A6C]_[T7G]_F4.1_[T8C]_[A9T]_T4.1]	682
UCUCUUUGUAUCCUUUCUCUU (ssRNA) [Ic_S1_P4E.1_K4.1_C4.1_H4.1_A4.1_[A6C]_[T7C]_F4.1_[A9T]_T4.1]	44.9
UCUCUUUGUAUUGGCUCUCUU (ssRNA) [Ic_S1_P4E.1_K4.1_C4.1_H4.1_A4.1_[A6T]_[T7G]_F4.1_[T8G]_[A9C]_T4.1]	1330
UCUCUUUGUAUCUACUCUCUU (ssRNA) [Ic_S1_P4E.1_K4.1_C4.1_H4.1_A4.1_[A6C]_F4.1_[T8A]_[A9C]_T4.1]	28.9
UCUCUUUGUAUUUAUCUCUU (ssRNA) [Ia_S1_P3E.1_K3.1_C3.1_H3.1_A3.1_[A6T]_F3.1_T3.1]	36.2
UCUCUUUGUAUCGUUUCUCUU (ssRNA) [Ic_S1_P4E.1_K4.1_C4.1_H4.1_A4.1_[A6C]_[T7G]_F4.1_[A9T]_T4.1]	328
UCUCUUUGUAUUAAUUCUCUU (ssRNA) [Ic_S1_P4E.1_K4.1_C4.1_H4.1_A4.1_[A6T]_[T7A]_F4.1_[T8A]_[A9T]_T4.1]	86.5
UCUCUUUGUAUUGGUUCUCUU (ssRNA) [Ic_S1_P4E.1_K4.1_C4.1_H4.1_A4.1_[A6T]_[T7G]_F4.1_[T8G]_[A9T]_T4.1]	500
UCUCUUUGUAUCAUUUCUCUU (ssRNA) [Ic_S1_P4E.1_K4.1_C4.1_H4.1_A4.1_[A6C]_[T7A]_F4.1_[A9T]_T4.1]	11.2
UCUCUUUGUAUCAAUCUCUU (ssRNA) [Ic_S1_P3E.1_K3.1_C3.1_H3.1_A3.1_[A6C]_F3.1_[T7A]_T3.1]	108
UCUCUUUGUAUCCAUUCUCUU (ssRNA) [Ic_S1_P4E.1_K4.1_C4.1_H4.1_A4.1_[A6C]_[T7C]_F4.1_[T8A]_[A9T]_T4.1]	362
UCUCUUUGUAUCCCGUCUCUU (ssRNA) [Ic_S1_P4E.1_K4.1_C4.1_H4.1_A4.1_[A6C]_[T7C]_F4.1_[T8C]_[A9G]_T4.1]	> 2300
UCUCUUUGUAUUCUUUCUCUU (ssRNA) [Ic_S1_P4E.1_K4.1_C4.1_H4.1_A4.1_[A6T]_[T7C]_F4.1_[A9T]_T4.1]	27.1
UCUCUUUGUAUUCGAUCUCUU (ssRNA) [Ic_S1_P4E.1_K4.1_C4.1_H4.1_A4.1_[A6T]_[T7C]_F4.1_[T8G]_T4.1]	753
UCUCUUUGUAUCGAUCUCUU (ssRNA) [Ib_S1_P3E.1_K3.1_C3.1_H3.1_A3.1_[A6C]_F3.1_[T7G]_T3.1]	1020
UCUCUUUGUAUCGGUUCUCUU (ssRNA) [Ic_S1_P4E.1_K4.1_C4.1_H4.1_A4.1_[A6C]_[T7G]_F4.1_[T8G]_[A9T]_T4.1]	938

Binder	Kd [nM]
UCUCUUUGUAUCCAGUCUCUU (ssRNA) [Ic_S1_P4E.1_K4.1_C4.1_H4.1_A4.1_[A6C]_[T7C]_F4.1_[T8A]_[A9G]_T4.1]	2020
UCUCUUUGUACAUGUCUCUU (ssRNA) [Ic_S1_P3E.1_K3.1_C3.1_H3.1_A3.1_[T5C]_F3.1_[A8G]_T3.1]	21.8
UCUCUUUGUAUUACCUCUCUU (ssRNA) [Ic_S1_P4E.1_K4.1_C4.1_H4.1_A4.1_[A6T]_[T7A]_F4.1_[T8C]_[A9C]_T4.1]	511
UCUCUUUGUAUUCCAUCUCUU (ssRNA) [Ic_S1_P4E.1_K4.1_C4.1_H4.1_A4.1_[A6T]_[T7C]_F4.1_[T8C]_T4.1]	454
UCUCUUUGUAUCGGCUCUCUU (ssRNA) [Ic_S1_P4E.1_K4.1_C4.1_H4.1_A4.1_[A6C]_[T7G]_F4.1_[T8G]_[A9C]_T4.1]	2020
UCUCUUUGUAUCAUCUCUCUU (ssRNA) [Ic_S1_P4E.1_K4.1_C4.1_H4.1_A4.1_[A6C]_[T7A]_F4.1_[A9C]_T4.1]	17.6
UCUCUUUGUAUUCUCUCUCUU (ssRNA) [Ic_S1_P4E.1_K4.1_C4.1_H4.1_A4.1_[A6T]_[T7C]_F4.1_[A9C]_T4.1]	38.5
UCUCUUUGUAUUCGGUCUCUU (ssRNA) [Ic_S1_P4E.1_K4.1_C4.1_H4.1_A4.1_[A6T]_[T7C]_F4.1_[T8G]_[A9G]_T4.1]	> 2300
UCUCUUUGUAUUAAAUCUCUU (ssRNA) [Ic_S1_P4E.1_K4.1_C4.1_H4.1_A4.1_[A6T]_[T7A]_F4.1_[T8A]_T4.1]	95.4
UCUCUUUGUAUCCUCUCUCUU (ssRNA) [Ic_S1_P4E.1_K4.1_C4.1_H4.1_A4.1_[A6C]_[T7C]_F4.1_[A9C]_T4.1]	67.2
UCUCUUUGUAUUGUGUCUCUU (ssRNA) [Ic_S1_P4E.1_K4.1_C4.1_H4.1_A4.1_[A6T]_[T7G]_F4.1_[A9G]_T4.1]	40.2
UCUCUUUGUAUCAGCUCUCUU (ssRNA) [Ic_S1_P4E.1_K4.1_C4.1_H4.1_A4.1_[A6C]_[T7A]_F4.1_[T8G]_[A9C]_T4.1]	606
UCUCUUUGUAUCGAUUCUCUU (ssRNA) [Ic_S1_P4E.1_K4.1_C4.1_H4.1_A4.1_[A6C]_[T7G]_F4.1_[T8A]_[A9T]_T4.1]	581
UCUCUUUGUAUCGUGUCUCUU (ssRNA) [Ic_S1_P4E.1_K4.1_C4.1_H4.1_A4.1_[A6C]_[T7G]_F4.1_[A9G]_T4.1]	432
UCUCUUUGUAUCCACUCUCUU (ssRNA) [Ic_S1_P4E.1_K4.1_C4.1_H4.1_A4.1_[A6C]_[T7C]_F4.1_[T8A]_[A9C]_T4.1]	981
UCUCUUUGUAUCACCUCUCUU (ssRNA) [Ic_S1_P4E.1_K4.1_C4.1_H4.1_A4.1_[A6C]_[T7A]_F4.1_[T8C]_[A9C]_T4.1]	432
